Test results taken from the DeepSol protein solubility set.

Assay: soluble on expression in E. coli; label from the status in PepcDB or PDB records

Sequence | soluble on expression in E. coli
MTVRIAINGFGRIGRNVVRALYESGRRAEITVVAINELADAAGMAHLLKYDTSHGRFAWEVRHEREQLFVGDDVIRILHERTLADLPWRELGVDVVLDCTGVYGNREHGEAHIAAGAKKVLFSHPGSNDLDATVVFGVNQNQLRAEHRIVSNASCTTNCIIPVIKLLDDAYGIESGTVTTIHSAMNDQQVIDAYHSDLRRTRAASQSIIPVDTKLAAGITRIFPQFNDRFEAIAVRVPTINVTAIDLSVTVKKPVKASEVNQLLQKAAQGAFHGIVDYTESPLVSIDFNHDPHSAIVDGTQTRVSGAHLIKTLVWCDNEWGFANRMLDTTLAMAAVGFRLDASASTKL | not soluble
GPGSMWKCYPLRCPAATGVFGCFKRLQDGYSAWCAAVSNQETASAKTSSRGSGAENTENLQLPIHTNPNACPRSVLVVPAGDIKDALRRQKRYDVVADVVMLDLTRGVFGGSDRSGGASEARDRLLRFLRESVRGDHMEGCSDDGEWKTQSGEGTVGQIFNGGRARWVVRVNSPEFDAARGFLDMELVGVLGDLIEGVVLPSVTANTYELVQEFIHPSHKLWAAFNTPLSVLQASAVCAQGHYRYAIVDREELAYEMQYPSVNSEKRSGSLNFSEDVEATQLKHVRSLPALHSACQVMTAAKAHGMYLFDGGFSDVSDSIGFRHDMQRCRAFGFDGRVVLRPSQIAACHEAFVPTSEEVEWAKAVQRTHCMDQYNVNGDNATSVGGDATCRRQRAALILERHAAVQWYNRNPQDDGMDMQRKGAGGNVPQGSVV | not soluble
MKQLNGGNVYRPTGKEKNLQAILNIHRHVIQNISPVTITAGKTLDIKIDNQSHILLITKGAIKVCRRIDSIVMGCGVSPMILGLVDAYADLYQLEENSDVFFIAETTCEYYPVPVKDFVEIADEKHLWRDISNILMYRIAFMTNRDRNLIGQDAYSQIKALLLELWSYPESSRFEINAQNFIQQRTGLSRSRIMQVLSELKAGDYIKILHGRLLELRNLPVSF | not soluble
MTKYRLHYFNARGYAEASRAMFHMAGVEFEDVRYEIDDWIKEENTLKNEMPFGQMPVLEVDGEKIPQSVAIARFVANQLGFAGQTPVEKAWADAFTDLYKDFLIDMKPWAMIAFGYPGAAGDRDELKKTSLDPAKEKYFKLLSKRLEKSKSGFLLDSGISFPDLFFFETTTSLIELEKGFLGTDFPVVNAYFKRIAEHPKLKPYLETRPYSSK | not soluble
MGSDKIHHHHHHMDKMKAITFFDLDGTLLDGTSQITPEITAAVAALKDNQILPLIATGRTLCEIQPIMKASGIDSAIVMNGQFIHYEGKTIYSDEFTTEECVSLHEHVKQRGHELAFYNERRIFCTGHTGTVKQAYDYIHSAVPEIDPTGYENDAVNMMLVLSQHGDDDEYYYERFPELTFYRNGPFSIDIVRKGVSKGSGVKNLFNTLGLNGIPTYAFGDGINDLALFEACDYGIAMGNAREELKEKATFISTKNTENGIVNGLKKFDLL | not soluble
MRYFINIYVFRIKKILVLSVVNHISMDNPFSKFTNSRTIQADLSLLEENYIPDSFPHREKQINDMVTILSSIMRNSRPSNIIVYGKTGTGKTSTTKYVTRMLQEATSNVEVIYVNCEIYDSPYSILVYVANFAGGEKIPELGWPVDRIYREAVDRINGTGKFFVIVLDEMDRLIKKSGGDSLYVLLKLMTDVENVKVSMIGITNDTTLLENLDSRIKSRLNQESIVFPPYNATEIRDIIASRLEKVFGPGVVDDTAINLCAAIGAQEHGDARKAIDLMRIAIEIAIRENRLKVTEKEVYEARDKYEMNVMHEAINTLPIHSKIVLLSAIVTQEIEPNSVITGEIYENYRRICEDLGFTPLTPRRISDLLTELSDYGLIVVDERNMGKYGRTRGFSVVKEIETIKKYLMEDENLSMFKTSKMTKQARFDS | not soluble
MSQWHHPRSGWGRRRDFSGRSSAKKKGGNHIPERWKDYLPVGQRMPGTRFIAFKVPLQKSFEKKLAPEECFSPLDLFNKIREQNEELGLIIDLTYTQRYYKPEDLPETVPYLKIFTVGHQVPDDETIFKFKHAVNGFLKENKDNDKLIGVHCTHGLNRTGYLICIYLIDVEGVRPDDAIELFNRCRGHCLERQNYIEDLQNGPIRKNWNSSVPRSSDFEDSAHLMQPVHNKPVKQGPRYNLHQIQGHSAPRHFHTQTQSLQQSVRKFSENPHVYQRHHLPPPGPPGEDYSHRRYSWNVKPNASRAAQDRRRWYPYNYSRLSYPACWEWTQ | soluble
MHHHHHHSSGRENLYFQGTYNISVVGLSGTEKEKGQCGIGKSCLCNRFVRPSADEFHLDHTSVLSTSDFGGRVVNNDHFLYWGEVSRSLEDCVECKMHIVEQTEFIDDQTFQPHRSTALQPYIKRAAATKLASAEKLMYFCTDQLGLEQDFEQKQMPDGKLLVDGFLLGIDVSRGMNRNFDDQLKFVSNLYNQLAKTKKPIVVVLTKCDEGVERYIRDAHTFALSKKNLQVVETSARSNVNVDLAFSTLVQLIDK | soluble
MATPDTSAAKMAGQDRQKLKVVAWLQNLVERLKGWTPGHCQKLFDEKELIQLCYRAREVFWKNNVKLELKAPVKICGDLHGQYEDLLALLELNGWPPETKYLFLGDYVDRGPFSIEVISLLFAYQVLHPDKVFLLRGNHESRPVNMQYGFFMECRKRFSNALYDAFQLAFYCMPLCAVVSDKIICMHGGISEDLVDLRQLDKVERPCDVPDIGVIADLTWADPDATIQMYAESQRGAGRVFGAEAVKKFLNTHHLELVVRAHQVVMDGYEFFADRQLVTIFSAPSYCGQMDNAAAVMTVDEELVCSFTVMRPDLKKDKEKKAAVGIVPN | not soluble
MAFVKPILLKSATCLLPRVLKLLFATLKINVGYAGEKLPDDQRGVMFAFWHGKMIAGWLLARRLYPKREISAVVSLSGDGQILSDTLDRLGFHLIRGSSSRGKEVVRRGIGVALSNGGVAAVTPDGPRGPHHRFKYGTLRLAAQHRTPVVFAEISYDNARRLKSWDRFEIPLPFSRVRVTLHVVQVPEFPTEEAFRAWADELSTGFDDALEHHHHHH | not soluble
MKEGMKVVLVGSPGIEGTWILAKDYDQLLLEKGISREIIEKAKEFKKDIVVQPKALSILDYVVAMHDATEGGIMQAMLEVAKASGYTVSINLDKIVLRRETKIITKALNIDPLRLISSGSFIAVSNTPEKILERISEAYIIGEIKRGDPVLEIK | soluble
WTCNKFRCGEKRLTRSLCACSDDCKDQGDCCINYSSVCQGEKS | soluble
MGSDKIHHHHHHMKIHQLRALVAVTTAGSIKAAARTMHVTQPAISKAIQELENEFGVPLLERKPWGVVPTPEGDALLGRAQAVVRELERANEDMAHMKGLRDGRLVIGFTPIVAVTGFAEAYAAFRRHWPNVECELRELTFNLLTEQLRNRTLDLAFVAVTGPLSESVDIKAIRTFDTAFVTRENGRFAGATSLDALRDAEWIHADASDSFPTYIRDLHAHAGLPPPRCITRCTSYALFYSLLMTNDAIFSWTRLSLAETVFGQKLTPLPLPMSPPPLQLYRLTPPGLQLTRPASDFLAHVETAFASNQLTGDVQR | not soluble
AIGRYTPADSTQELRDAARRLLPSSSLDKDLERLLRTWHKGYSTKTKRGERPCINSDTGPYTSDSVYIRRLSALPSAVPIQFNPAVKQCIKLYTEERRRLVRYMLSLADLYFPQIEETLDRHNLPIELKYLTIV | not soluble
MNATAVAAAATGRQLHKFGGSSLADVKCYLRVANIMANYSHPGDLMVVSAAGSTTNQLISWLKLSQNDRLSAHQVQQSLRRYQHDLINGLLPPEMAEPLISEFIHDLERLAGLLDNKIDDVIYAEVVGHGEIWSARLMSALLNKLDMDAVWLDARRFLRAERAAQPQIDESRSYPLLQQLMAQHPHQRLVVTGFISRNEAGETVLLGRNGSDYSATQVGALAGAERVTIWSDVAGVYSADPRKVKDACLLPLLRLDEASELARLAAPVLHTRTLQPVSGSDIDLQLRCSYQPEQGSTRIERVLASGLGAKIVTSHDDVCLIELQIASHHDFSLAQKEIDLLLKRAQIKPLATGIHPDRNLLQLCYTSEVVNSALRVLEDAALPGKLSLREGLALVALVGAGVSKNPLHSHRFYQQLKDQPVEFVWQAEDGISMVAVLRLGPTEHLIQGLHQSLFRAEKRIGLMLFGKGNIGARWLELFAREQKSLSARSGFEFVLAGVVDSRRSLLSYDGLDASRTLAFYNDEAKEQDEESLFLWMRAHPFDDLVVLDVTASPSLAEQYLDFASYGFHVISANKLAGASSSNNYRQIRDAFAKTGRHWLYNATVGAGLPVNHTVRDLRDSGDSILAISGIFSGTLSWLFLQFDGSVPFTELVDQAWQQGLTEPDPRVDLSGQDVMRKLVILAREAGYDIEPNQVRVESLVPAGAESGSVDQFFENGEALNQQMIQRLEAAKEMGLVLRYVARFDANGKARVGVEAVRTDHPLASLLPCDNVFAIESRWYRDNPLVIRGPGAGRDVTAGAIQSDLNRLSQLL | not soluble
IVPTRELENVFLGRCKDYEITRYLDILPRVRSDCSALWKDFFKAFSFKNPCDLDLGSYKDFFTSAQQQLPKNKVMFWSGVYDEAHDYANTGRKYITLEDTLPGYMLNSLVWCGQRANPGFNEKVCPDFKTCPVQARESFWGMASSSYAHSAEGEVTYMVDGSNPKVPAYRPDSFFGKYALPNLTNKVTRVKVIVLHRLGEKIIEKCGAGSLLDLEKLVKAKHFAFDCVENPRAVLFLLCSDNPNARECRLAKRFYRIA | soluble
MGSDKIHHHHHHMDKLIAFLKDKKITEVECVISDMTGIARGKIAPVDKFVSEKGMRLPESVLLQTVTGDFIDDEVYYQLLDDADIDFVCVPDENAVFMLPWTVEATAQVIHDCYDRMGNPIELSPRNVLKKVLKLYEDKGWEPVIAPEMEFYLTKRSDDHDLPLKPPIGRSGRPEAGRQSFSIDAANEYDPLFEDMYDWCEIQGLDIDTLIHEDGPAQMEINFSHGNALSLADQVFIFKRTLKEAALKHDVCATFMAKPVTDEPGSAMHIHQSVLDIKTGKNIFTKDDGTQSKLFLSYIAGLQQYIPELLPLMAPSANSFRRFLPGTSAPVNLEWGVENRTCGLRIPESSPQNRRIENRIPGADANCYLAIAASLLCGYIGMVDDLKPSTPVTGKSNESRTNNENCLPLTLEEALVAMQSSDACIEYLGQSFTTGFVAVKQAELENFRRVVSSWEREFLLLTV | not soluble
MAIAYFIPDQAQLLARSYQQNGQQTAASPRTTATAAAPSQQQQQSQQQQQQQRHHHQQQRPQFRANISVPLGSQQGSMTMSEFGCWDLLAQIFCYALRIYSYSSSQRQPTVIQISFEISSGGQNNDEDDVTDATSKEN | not soluble
MAFKPVSITGTRRQAGQALGKLARPLMATYLEQSTVWAALRPWRGHAYLEALAHEASQALPEIWDELEGLAEGLRMPLVDILLWNCRGDLLHKTSDGCTSIAWRGDEDARWIAHNEDGDPFLYGRCHMVDVRTDDAPGYISFYYPGSLPGHTFGANRAGLVQTINNVRIRQRHAGVPRMLLARAVLDCATLDDALAVLRDHPRAGGFHHTLGAAGEPRLYSVEASPAACSIGEVARGNGHANHLVHPGSEAIGQIVTDSSRSRQRHIENLMDHWQPPVDGARLVATLLDREGELPILRCGADDPDEENTLATALFEMRDGGLTLQVHDRRDQPALRVTVCPAALEHHHHHH | not soluble
MGSDKIHHHHHHEELEYKGMNTLQISNVDDLISFYQYADDRIPLISGHRGGRGKGYPENSMETFENTLSYTPATFEIDPRLTKDSVIVLFHDDTLERTSNGTGKVSDYTWEELQNFRLKDPEGNITNYRIPTLEEAIRWARGKTILILDKKDVPMERTAQLITDMQAEPYVMITVHDGASARFFYEKNPNFMFEAFVKTKEAVQDYEDNGIPWSHIMAYVGPKITPEVREVIDMLHERGVMCMISTAPSDDKLSTPESRAEAYRMIIRQGVDIIESDRPIEVAEAISSLIPVSSSKGKFFSTL | not soluble
MAHHHHHHMERAHGAKDGGSKTLFVTVGSHQFDDLIKQIDTKDFHSFLRRAGFAKMSMQIGQGTYEPQLIYRCSGNGEESLLKRVKFFRYKKDLLKDFQKADLIVSHAGAGTTLEGLRMKKKMLIVVNDKLMGNHQLEFAEFLRSRNYLEVCECLGDLRAHVLRCLRTPAFAPFPAPRPEPFLRDLRALMDGAA | soluble
